Here are results for five molecules from patent US20170137467A1 (CHROMOTEK, published 2017).

For assay [1], the target named is T1, BC2T D2(I/L1).
T1 construct: position 2 library, row I/L1
In words: library pulldown, LC-MS of supernatant; ratio vs GFP-Nb control (0=captured, 1=not captured). An excerpt:
(§1) In total, 12 different BC2T libraries displaying all 20 proteinogenic amino acids in one single position of the peptide were used in immunoprecipitation experiments. […] The direct comparison with the GFP-Nb made it possible to determine the quantitative degree of peptide capture without the need of labeled standards. […] The more peptide was captured the more the value approximates 0. It was not possible to discriminate between isoleucine (I) and leucine (L) peptide versions since these peptides are isobaric.
(§2) To investigate the binding specificity of the BC2T and derived mutants peptide libraries for each amino acid position of the sequence […] (SEQ ID NO:4) were synthesized with acetyl and amide groups located at the N-termini or C-termini respectively (Intavis). […] Incubations were performed in 300 μl PBS/0.01% CHAPS for 1 h on a HulaMixer (Life Technologies). Subsequent to a centrifugation step 10 μl supernatant were analyzed in a LC-MS procedure. Peptides were separated using an UltiMate3000 RSLCnano System (Thermo Scientific), composed of a C18 PepMap100μ-Precolumn (300 μm×5 mm; particle size: 5 μm; pore size: 100 Å—Thermo Scientific) and a C18 analytical column (Acclaim Rapid Separation LC (RSLC) Column: 150 mm×5 mm; particle size: 2.2 μm; pore size: 100 Å—Thermo Scientific). A step gradient was applied starting at 8% and ending after 20 min at 30% eluent B (80% acetonitrile, 20% H₂O, 0.1% formic acid).

Assay [2] concerns the target T2, BC2T A5M (human).
T2 construct: position 5 library, row M
T2 peptide: Ac-PDRKMAVSHWQQ-NH2
Described as above.
Excerpt: as §1, §2

Assay [3] has as its target T3, BC2T D2G (human).
T3 construct: position 2 library, row G
T3 peptide: Ac-PGRKAAVSHWQQ-NH2
The assay is described as above.
Excerpt: as §1, §2

The target in assay [4] is T4, BC2T A5(I/L1).
T4 construct: position 5 library, row I/L1
The description is as above.
Excerpt: as §1, §2

The target of assay [5] is T5, BC2T A6(I/L2).
T5 construct: position 6 library (BC2TA6X), row I/L2
Described as above.
Excerpt: as §1, §2

The target of assay [6] is T6, BC2T V7(I/L1).
T6 construct: position 7 library, row I/L1
The description is as above.
Excerpt: as §1, §2

Assay [7] has as its target T7, BC2T K4A (human).
T7 construct: position 4 library, row A
T7 peptide: Ac-PDRAAAVSHWQQ-NH2
The description is as above.
Excerpt: as §1, §2

The target of assay [8] is T8, BC2T A5(I/L2).
T8 construct: position 5 library, row I/L2
The assay is described as above.
Excerpt: as §1, §2

Assay [9] has as its target T9, BC2T D2V (human).
T9 construct: position 2 library, row V
T9 peptide: Ac-PVRKAAVSHWQQ-NH2
Described as above.
Excerpt: as §1, §2

Assay [10] concerns the target T10, BC2T K4M (human).
T10 construct: position 4 library, row M
T10 peptide: Ac-PDRMAAVSHWQQ-NH2
Described as above.
Excerpt: as §1, §2

Assay [11] concerns the target T11, BC2T V7M (human).
T11 construct: position 7 library, row M
T11 peptide: Ac-PDRKAAMSHWQQ-NH2
The description is as above.
Excerpt: as §1, §2

Assay [12] concerns the target T12, BC2T R3(I/L2).
T12 construct: position 3 library (BC2TR3X), row I/L2
The description is as above.
Excerpt: as §1, §2

Assay [13] deals with T13, BC2T K4(I/L1).
T13 construct: position 4 library, row I/L1
The assay is described as above.
Excerpt: as §1, §2

Assay [14] addresses T14, BC2T R3G (human).
T14 construct: position 3 library (BC2TR3X), row G
T14 peptide: Ac-PDGKAAVSHWQQ-NH2
The description is as above.
Excerpt: as §1, §2

For assay [15], the target named is T15, BC2T A6V (human).
T15 construct: position 6 library (BC2TA6X), row V
T15 peptide: Ac-PDRKAVVSHWQQ-NH2
The assay is described as above.
Excerpt: as §1, §2

Assay [16] concerns the target T16, BC2T K4(I/L2).
T16 construct: position 4 library, row I/L2
Described as above.
Excerpt: as §1, §2

In assay [17] the target is T17, BC2T Q11R.
T17 construct: positional scanning library member
T17 peptide: Ac-PDRKAAVSHWRQ-NH2
In words: positional peptide library pulldown on immobilised Nb, LC-MS of supernatant; signal ratio to control GFP-Nb (1 = not captured, near 0 = captured).
Excerpt: as §1, §2

In assay [18] the target is T18, BC2T W10Y.
T18 construct: positional scanning library member
T18 peptide: Ac-PDRKAAVSHYQQ-NH2
Described as above.
Excerpt: as §1, §2

Assay [19] has as its target T19, BC2T W10Q.
T19 construct: positional scanning library member
T19 peptide: Ac-PDRKAAVSHQQQ-NH2
Described as above.
Excerpt: as §1, §2

Assay [20] concerns the target T20, BC2T Q12A.
T20 construct: positional scanning library member
T20 peptide: Ac-PDRKAAVSHWQA-NH2
The description is as above.
Excerpt: as §1, §2

Assay [21] deals with T21, BC2T H9M.
T21 construct: positional scanning library member
T21 peptide: Ac-PDRKAAVSMWQQ-NH2
The description is as above.
Excerpt: as §1, §2

Assay [22] addresses T22, BC2T Q11S.
T22 construct: positional scanning library member
T22 peptide: Ac-PDRKAAVSHWSQ-NH2
Described as above.
Excerpt: as §1, §2

Assay [23] has as its target T23, BC2T Q11W.
T23 construct: positional scanning library member
T23 peptide: Ac-PDRKAAVSHWWQ-NH2
Described as above.
Excerpt: as §1, §2

B1: BC2 nanobody (BC2-Nb) (VHH)
VHH: QVQLVESGGGLVQPGGSLTLSCTASGFTLDHYDIGWFRQAPGKEREGVSCINNSDDDTYYADSVKGRFTIFMDNAKDTVYLQMNSLKPEDTAIYYCAEARGCKRGRYEYDFWGQGTQVTVSS
notes: immobilised on agarose/sepharose beads in this assay; also called BC2 nanotrap (immobilised form); not shown: C-terminal 6xHis-tag added by pHEN6 vector
B1: the ratio in [1] is 0.1; in assay [2], 0.1; in assay [3], 0.3; in assay [4], 0.1; in assay [5] it was 0.9; in [6], 0.1. Also, the ratio in assay [7] turned out to be 0.2; in [8], 0.1; in assay [9] it was 0.1; in [10], 0.1; in [11] it was 0.3; in assay [12], 0.5. Further, the ratio stood at 0.1 in [13], 0.9 in assay [14], 0.3 in assay [15] and 0.2 in assay [16].

B2: BC2 nanobody (VHH)
VHH: QVQLVESGGGLVQPGGSLTLSCTASGFTLDHYDIGWFRQAPGKEREGVSCINNSDDDTYYADSVKGRFTIFMDNAKDTVYLQMNSLKPEDTAIYYCAEARGCKRGRYEYDFWGQGTQVTVSS
notes: immobilised on beads in this assay; also called BC2-Nb; BC2 nanotrap (immobilised)
Turning to B2, the ratio in assay [17] was 0; in assay [18], 1; in assay [19], 1.1; in [20] it was 0.1; in assay [21], 0.1; in assay [22], 0.1. Besides, the ratio in assay [23] stood at 0.

B3: BC2-NbR106E (VHH)
VHH: QVQLVESGGGLVQPGGSLTLSCTASGFTLDHYDIGWFRQAPGKEREGVSCINNSDDDTYYADSVKGRFTIFMDNAKDTVYLQMNSLKPEDTAIYYCAEARGCKRGEYEYDFWGQGTQVTVSS
notes: immobilised on beads in this assay; not shown: C-terminal 6xHis-tag added by pHEN6 vector
With B3, the ratio came to 0.1 in assay [1]; 0.1 in assay [2]; 0.4 in assay [3]; 0.1 in [4]; 0.8 in assay [5]; 0.1 in assay [6]. The ratio was 0.4 in [7]; 0.1 in assay [8]; 0.1 in assay [9]; 0.3 in [10]; 0.3 in [11]; 0.9 in assay [12]. The ratio worked out at 0.3 in assay [13], 1 in assay [14], 0.3 in assay [15] and 0.5 in assay [16].

B4: BC2-NbR106S (VHH)
VHH: QVQLVESGGGLVQPGGSLTLSCTASGFTLDHYDIGWFRQAPGKEREGVSCINNSDDDTYYADSVKGRFTIFMDNAKDTVYLQMNSLKPEDTAIYYCAEARGCKRGSYEYDFWGQGTQVTVSS
notes: as for B3
On to B4, for which the ratio worked out at 0.2 in assay [1]; 0.2 in assay [2]; 0.5 in assay [3]; 0.2 in assay [4]; 0.9 in [5]; 0.3 in assay [6]. Also, the ratio in assay [7] was found to be 0.6; in assay [8], 0.2; in assay [9], 0.2; in assay [10], 0.5; in [11], 0.5; in assay [12], 0.9. Besides, the ratio in [13] is 0.4; in assay [14] it was 1; in [15], 0.6; in [16] it was 0.6.

B5: BC2-NbR106S (VHH)
VHH: QVQLVESGGGLVQPGGSLTLSCTASGFTLDHYDIGWFRQAPGKEREGVSCINNSDDDTYYADSVKGRFTIFMDNAKDTVYLQMNSLKPEDTAIYYCAEARGCKRGSYEYDFWGQGTQVTVSS
notes: headlock mutant of BC2-Nb; immobilised on beads in this assay
Turning to B5, the ratio in [17] was found to be 0.1; in assay [18], 1; in assay [19] it was 1.1; in assay [20] it was 0.3; in [21], 0.3; in assay [22] it was 0.2. For the same molecule, the ratio in assay [23] worked out at 0.1.
